Measurements from US20110189095A1, “CRKL TARGETING PEPTIDES” (The Board of Regents, of the University of Texas System, priority 2008, published 2011).

What was measured:
[1] = target: T1, CRKL (Homo sapiens, UniProt P46109); assay: Phage binding assay on purified recombinant protein; design: The open reading frame of full-length CRKL cDNA (Invitrogen) was PCR-amplified and cloned in a pET28a (Novagen) expression vector; His-tag; made in house; host or cells: E. coli BL21
Method: Phage binding assays on purified proteins were carried out as described (Giordano et al. 2001). Recombinant proteins were coated on microtiter wells as previous described (Cardo-Vila et al., 2003; Smith and Scott, 1993). Briefly, proteins were immobilized on microtiter wells overnight at 4° C. 50 μl of 1 μg/ml in PBS. Wells were washed twice with PBS, blocked with PBS containing 3% BSA for 2 hours at room temperature, and incubated with 10^9 T.U. wild-type tumor-homing phage ([…]; SEQ ID NO:1), scrambled phage ([…] (SEQ ID NO:26), […] (SEQ ID NO:27), […] (SEQ ID NO:29), […] (SEQ ID NO:30)), mutant phage ([…] (SEQ ID NO:25), […] (SEQ ID NO:28)), PSI-derived cyclic phage (CNSTFLQEGMPTSAC; SEQ ID NO:23) or fd-tet phage in 50 μl of PBS containing 1.5% BSA. After 1 hour at room temperature, wells were washed ten times with PBS and phage were recovered by bacterial infection. ELISA with polyclonal anti-CKRL confirmed the presence and concentration of the CKRL recombinant proteins on the wells. […] After 3 hours, binding of CKRL to integrins was detected by using an anti-CKRL antibody followed by an HRP-conjugated anti-rabbit IgG. […]

[2] = target: T1, CRKL; assay: Binding assays with recombinant gst-PSI fusion proteins
Description: FIG. 3A-D: Receptor binding by peptides. FIG. 3A, the recombinant His-tag CRKL (rCRKL), rCRKL-SH3 (N) domain, and rCRKL-SH3 (C) domain bind to the tumor-homing peptide-[…] (SEQ ID NO:1). FIG. 3B, the recombinant His-tag rCRKL, rCRKL-SH3 (N) domain, and rCRKL-SH3 (C) domain bind to the synthetic peptide NSTFLQEGMPTSA (SEQ ID NO:23) corresponding to a region in the PSI domain. FIG. 3C, recombinant gst fusion protein of the entire PSI domain (residues 22-82. SEQ ID NO: 71-[…]), gst-PSI linear (residues 48-62, SEQ ID NO: 72-TNSTFLQEGMPTSAR), gst-PSI cyclic (residues […], SEQ ID NO: 72-CTNSTFLQEGMPTSARC) were generated for binding assays. Both the linear and the cyclic PSI-derived regions bind to CRKL. FIG. 3D, the binding activity of the tumor-homing peptide to rCRKL-SH3 (C) domain is inhibited by the tumor-homing ([…]; SEQ ID NO:1) peptide, by the PSI-derived (NSTFLQEGMPTSA; SEQ ID NO:23) peptide or tumor-homing phage displaying SEQ ID NO:1. Bars represent mean±standard deviation from triplicate wells.
CRKL mutants in the SH3 domain (carboxyl terminal) were generated by PCR mutagenesis. Primer sets were designed to remove 60 bp (Δ1 and Δ2) and 54 bp (Δ3) and maintain the reading frame. For the PSI domain constructs, cyclic and linear peptide forms of the PSI domain were produced. […] Protein-protein interactions were detected by using an antibody against gst.

[3] = target: T2, rCRKL-SH3 (C) domain (Homo sapiens, UniProt P46109); assay: Inhibition of rCRKL-SH3 (C) domain binding to coated tumor-homing peptide; settings: inhibitor pre-incubated with rCRKL-SH3 (C)
T2 construct: cDNAs corresponding to each of the SH domains were PCR-amplified and cloned into the Sac I and Xho I restriction sites; His-tag; made in house; host or cells: E. coli BL21
T2 sequence (P46109 235-296 limits assumed): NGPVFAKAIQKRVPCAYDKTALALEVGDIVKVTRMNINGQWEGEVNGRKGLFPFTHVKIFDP
Method: (§1) Synthetic tumor-homing peptide ([…]; SEQ ID NO:1) or PSI-derived peptide (NSTFLQEGMPTSA; SEQ ID NO:23) were coated on microtiter plates followed by blocking, and washing. The following recombinant His-tag proteins were added to the coated plates: rCRKL, rCRKL-SH2 domain, rCRKL-SH3 (N) domain, and rCRKL-SH3 (C) domain. An unrelated control protein (α2-Heremans-Schmid glycoprotein; AHSG) served as a negative control. The mixtures were incubated, washed, and labeled with the appropriate antibodies. Secondary antibodies conjugated to horse-radish peroxidase (HRP) were added followed by adding TMB substrate (Calbiochem), and analyzed by an automated ELISA reader (Bio-Tek). To determine the inhibitory activity of the tumor-homing peptide, the PSI-derived peptide, or the phage clone displaying the corresponding tumor-homing peptide were incubated with the rCRKL-SH3 (C) domain. Unrelated cyclic peptide sequences and insertless phage (fd-tet) served as negative controls. The admixtures were incubated and added to wells coated with the tumor-homing peptide. After incubation, the wells were washed, labeled with the appropriate antibodies, and processed as above.

[4] = test system: human prostate cancer xenografts (DU145-derived); assay: Therapy in tumor-bearing mice (tumor volume); type: in vivo, nude mice; settings: equimolar amounts, systemically administered, vs untreated or vehicle
Description: Finally, a pilot pre-clinical trial that included four cohorts of size-matched tumor-bearing mice was designed and conducted (FIG. 11). Animals received the following reagents: (i) the synthetic PSI domain-mimic peptide, (ii) the synthetic PSI domain-mimic peptide linked to a pro-apoptotic peptidomimetic (Arap et al., 2004; Ellerby et al., 1999; Kolonin et al., 2004; Zurita et al., 2004) in order to induce targeted apoptosis upon receptor-mediated internalization, (iii) the synthetic pro-apoptotic peptidomimetic alone, or (iv) vehicle alone. All peptides or peptidomimetics were administered at equimolar concentrations.
DU145 tumor-bearing mice were size-matched and divided into individual cohorts (n=4 mice per group). The tumor-homing peptide […] (SEQ ID NO:1) was synthesized fused with the proapoptotic motif D(KLAKLAK)2. Unconjugated peptide […] (SEQ ID NO:1) or D(KLAKLAK)2 served as controls. The synthetic peptides were systemically administered and tumor volumes measured as described (Arap et al., 1998; Arap et al., 2004).

[5] = test system: DU145 cells; assay: Peptide internalization assay (WST-1 cell viability, annexin-V staining); type: cell-based, human; settings: DU145 cells; measured by cell viability and annexin-V
Method: The internalization capability of the tumor-homing peptide fused through a glycinylglycine bridge to a pro-apoptotic sequence was tested as described Arap et al., 2004; Ellerby et al., 1999; Kolonin et al., 2004; Zurita et al., 2004). The conjugated tumor-homing peptide, […] (SEQ ID NO:67)-D(KLAKLAK)2 or the untargeted control peptide D(KLAKLAK)2 were synthesized and increasing equimolar peptide concentrations were added to the DU145 cells. Cell viability was assayed by the WST-1 reagent (Roche) and annexin-V staining for apoptosis (Zurita et al., 2004; Cardo-Vila et al., 2003). For tumor-homing phage localization studies, cells were incubated with 10^9 T.U. tumor-homing ([…]; SEQ ID NO:1) or a negative control (fd-tet) phage for 6 and 24 hours. Wells were washed with 20 mM glycine to remove non-specific cell surface bound phage and then fixed with 4% paraformaldehyde. The non-permeabilized cells were incubated with rabbit anti-fd bacteriophage antibody (Sigma) for 2 hours at room temperature followed by 1 hour incubation with Cy3-labeled anti-rabbit IgG antibody (Jackson ImmunoResearch). Cells were again fixed with 4% paraformaldehyde and mounted in the presence of DAPI (Vector Laboratories) and images were acquired with an Olympus fluorescence microscope.

[6] = target: T3, rCRKL (Homo sapiens, UniProt P46109); assay: Peptide binding assay with recombinant His-tag proteins (ELISA); settings: peptide coated on microtiter plates
T3 construct: The open reading frame of full-length CRKL cDNA (Invitrogen) was PCR-amplified and cloned in a pET28a (Novagen) expression vector; His-tag; made in house; host or cells: E. coli BL21
T3 sequence (P46109 whole entry): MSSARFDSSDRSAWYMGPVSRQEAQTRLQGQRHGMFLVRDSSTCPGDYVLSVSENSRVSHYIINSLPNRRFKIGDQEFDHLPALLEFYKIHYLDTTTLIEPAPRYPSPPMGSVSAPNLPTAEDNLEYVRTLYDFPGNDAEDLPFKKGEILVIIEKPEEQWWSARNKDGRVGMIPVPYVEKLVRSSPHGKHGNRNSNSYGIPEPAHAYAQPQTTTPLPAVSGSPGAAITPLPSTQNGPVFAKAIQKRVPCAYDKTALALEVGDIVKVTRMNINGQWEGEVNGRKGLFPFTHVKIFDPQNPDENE
Method: as §1

[7] = target: T4, rCRKL-SH3 (N) domain (Homo sapiens, UniProt P46109); assay: as above; settings: peptide coated on microtiter plates
T4 construct: cDNAs corresponding to each of the SH domains were PCR-amplified and cloned into the Sac I and Xho I restriction sites; His-tag; made in house; host or cells: E. coli BL21
T4 sequence (P46109 123-183 limits assumed): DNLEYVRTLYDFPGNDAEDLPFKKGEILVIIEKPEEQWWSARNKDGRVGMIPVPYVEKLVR
Method: as §1

[8] = target: T2, rCRKL-SH3 (C) domain; assay: as above
Method: as §1

[9] = target: T5, rCRKL-SH2 domain (Homo sapiens, UniProt P46109); assay: as above; settings: peptide coated on microtiter plates
T5 construct: cDNAs corresponding to each of the SH domains were PCR-amplified and cloned into the Sac I and Xho I restriction sites; His-tag; made in house; host or cells: E. coli BL21
T5 sequence (P46109 14-102 limits assumed): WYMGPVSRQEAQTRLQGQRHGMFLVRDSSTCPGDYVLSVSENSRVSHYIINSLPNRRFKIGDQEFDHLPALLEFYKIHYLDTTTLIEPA
Method: as §1

T1 sequence (P46109 whole entry): as the sequence (P46109 whole entry) above

CNSTFLQEGMPTSAC [PSI-derived phage] was tested, and the “phage binding to recombinant CRKL” value [1] was “bind”.
With CTNSTFLQEGMPTSARC [gst-PSI cyclic] the “binding to CRKL” value [2] was “bind”.
“TNSTFLQEGMPTSAR (left off: a dimerising Fc or GST; large carriers; small tags and cut ends) [gst-PSI linear, recombinant gst fusion of linear PSI region, residues 48-62]” was tested, and the “binding to CRKL” value [2] was “bind”.
“YRCTLNSPFFWEDMTHECHA (listed as Homo sapiens) [Peptide 6]” was tested, and the “inhibition of binding of the tumor-homing peptide to rCRKL-SH3 (C) domain” value [3] was “inhibited”, the “tumor growth / tumor volume” value [4] was “no differences in tumor volume” and the “tumor growth / tumor volume” value ([4]; listed as PSI domain-mimic peptide) was “no detectable effect”. The internalization [5] was “mediates ligand-directed internalization”, the “binding to rCRKL” value [6] was “bound” and the “binding to rCRKL-SH3 (N) domain” value [7] was “bind”. The “binding attributes to the CRKL-SH3 (C) domain (site-directed mutagenesis)” value [8] was “dependent on the Pro residue and on the cyclic Cys-Cys disulfide bridge”, the “binding to rCRKL-SH3 (C) domain” value ([8]; peptide coated on microtiter plates) was “bind” and the “binding through the SH2 domain” value [9] was “little to no binding”.
